Laboratory results as given in patent US20110071089A1.

How the values were obtained:
[1] = target: T1, human TRPV6b expressed in LnCaP cells (transfected with pCAGS-IRES-hTRPV6b) (human), Q9H1D0
T1 chain: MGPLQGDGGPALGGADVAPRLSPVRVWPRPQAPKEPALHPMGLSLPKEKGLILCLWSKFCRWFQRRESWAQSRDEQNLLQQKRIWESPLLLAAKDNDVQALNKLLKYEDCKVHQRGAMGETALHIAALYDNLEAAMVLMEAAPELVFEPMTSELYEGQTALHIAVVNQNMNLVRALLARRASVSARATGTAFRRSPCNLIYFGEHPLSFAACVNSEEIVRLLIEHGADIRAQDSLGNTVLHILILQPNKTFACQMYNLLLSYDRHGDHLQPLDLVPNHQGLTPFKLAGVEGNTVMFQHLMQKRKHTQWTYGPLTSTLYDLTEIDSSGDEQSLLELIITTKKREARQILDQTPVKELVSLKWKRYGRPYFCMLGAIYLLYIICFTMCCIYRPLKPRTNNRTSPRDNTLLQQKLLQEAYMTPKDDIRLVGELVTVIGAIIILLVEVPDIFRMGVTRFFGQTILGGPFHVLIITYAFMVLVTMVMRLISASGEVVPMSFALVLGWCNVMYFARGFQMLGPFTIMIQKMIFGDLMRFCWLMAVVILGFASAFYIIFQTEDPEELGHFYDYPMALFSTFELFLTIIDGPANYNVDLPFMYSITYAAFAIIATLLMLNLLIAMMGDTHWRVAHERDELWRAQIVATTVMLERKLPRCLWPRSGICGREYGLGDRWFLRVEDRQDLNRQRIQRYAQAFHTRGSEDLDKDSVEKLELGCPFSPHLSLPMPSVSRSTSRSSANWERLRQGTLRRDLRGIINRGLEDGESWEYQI

[2] = target: T1, human TRPV6b expressed in LnCaP cells …; experiment: cell-based or functional assay

B1: SorC27 (peptide)
peptide: EGKLSSNDTEGGLCKEFLHPSKVDLPR
modifications: not checked
B1 showed a Kd [1] of 140 nM and an inhibition constant of calcium current (whole-cell patch clamp) [2] of 100 nM.

B2: SorC13 (peptide)
peptide: KEFLHPSKVDLPR
modifications: not checked
In the case of B2, the Kd [1] is reported as 100 nM and the inhibition constant of calcium current (whole-cell patch clamp) [2] is reported as 100 nM.
